In one test the target is the mutant mIL-10R. As to the kind of experiment: binding of iodinated hIL-10 to Ba/F3 transfectants, Scatchard analysis.
The target in the next test is mIL-10R Δ282-389 (mouse). The conditions noted are these: scale: log greater proliferative response than wild-type mIL-10R.
The target in another test is mIL-10R Δ282-414 (mouse). The conditions noted are these: scale: log greater proliferative response than wild-type mIL-10R.
In a further test the target is mIL-10R Δ282-458 (mouse). To be noted: scale: log greater proliferative response than wild-type mIL-10R.
Test [1] concerns the target T1, ^125 I-hIL-10 (iodinated recombinant CHO-derived human IL-10) (human, UniProt P22301, iodinated (125I); labelled residue not stated). As to the kind of experiment: Scatchard analysis of 125I-hIL-10 saturation binding to Ba/F3 transfectants. The procedure: Approximately 5×10^6 cells for each cell line tested were pelleted by centrifugation at 200×g for 10 min, washed in PBS, and resuspended in 200 μl binding buffer (PBS, 10% fetal calf serum, 0.1% NaN_3) containing iodinated hIL-10 at a concentration of 100–500 pM. After incubation at 4° C. for two hours in a rotary mixer, the cells were centrifuged at 200×g for 10 min, resuspended in 100 μl binding buffer without labeled hIL-10, layered over 200 μl of a 1:1 mixture of dibutyl- and dioctyl-phthalate oils in elongated microcentrifuge tubes, centrifuged at 400×g for 5 min at 4° C., and quick frozen in liquid nitrogen. The cell pellets were then cut and counted in a Clinigamma 1272 counter (Pharmacia LKB). Non-specific binding was determined by performing the binding in the presence of 500 to 1000-fold molar excess unlabeled hIL-10. For saturation binding experiments, two-fold serial dilutions of approximately 600 pM solution of iodinated hIL-10 were used, with a parallel series done to determine non-specific binding. Scatchard analysis was performed on the data points obtained using the EBDA Program (Elsevier-Biosoft, Cambridge, U.K.). Antibody inhibition was done under the above binding conditions but with the addition of a 100-fold molar excess of each of the indicated monoclonal antibodies. Cytokine specificity was determined under similar conditions but with the addition of 500-fold molar excess of the cytokines indicated. Similar measurements can be made using the BIACORE apparatus (Pharmacia LKB) following manufacturer's recommendations.

Test [2] deals with T1, ^125 I-hIL-10 (iodinated recombinant …). As to the kind of experiment: binding of iodinated hIL-10 to Ba/F3 transfectants.

Where “and” joins values, the source holds several entries; their conditions need not be identical. Equal entries are not always repeated.

Results on seven molecules are retold here after patent US5716804, “Mammalian interleukin-10 (IL-10) super-activating receptors; and variants” (Schering Corporation, dated 1998).

The Kd is the concentration at which binding is half-saturated. In the test with the mutant mIL-10R, “^125 I-hIL-10 (iodinated recombinant CHO-derived human IL-10) (from UniProt P22301) (ligand)” yielded a Kd of 0.4 to 0.6 nM.

On to IL-10 (ligand), for which the proliferative response to IL-10 of Ba/F3 transfectants with mIL-10R Δ282-389 (mouse) is 1.5 and 2; with mIL-10R Δ282-414 (mouse), 1.5 and 2; with mIL-10R Δ282-458 (mouse), 1.5 and 2.

B1: mIL-10R Δ282-414 (receptor)
chain: LEFIAYGTELPSPSYVWFEARFFQHILHWKPIPNQSESTYYEVALKQYGNSTWNDIHICRKAQALSCDLTTFTLDLYHRSYGYRARVRAVDNSQYSNWTTTETRFTVDEVILTVDSVTLKAMDGIIYGTIHPPRPTITPAGDEYEQVFKDLRVYKISIRKFSELKNATKRVKQETFTLTVPIGVRKFCVKVLPRLESRINKAEWSEEQCLLITTEQYFTVTNLSILVISMLLFCGILVCLVLQWYIRHPGKLPTVLVFKKPHDFFPANPLCPETPDAIHIVEEKDQVMVTFQGYQKQTRWKAEAAGPAECLDEEIPLTDAFDPELGVHLQDDLAWPPPALAAGYLKQESQGMASAPPGTPSRQWNQLTEEWSLLGVVSCEDLSIESWRFAHKLDPLDCGAAPGGLLDSLGSNLVTLPLISSLQVEE
B1: the Kd in test [1] is 0.67 nM.

B2: mIL-10R Δ483-559 (receptor)
chain: LEFIAYGTELPSPSYVWFEARFFQHILHWKPIPNQSESTYYEVALKQYGNSTWNDIHICRKAQALSCDLTTFTLDLYHRSYGYRARVRAVDNSQYSNWTTTETRFTVDEVILTVDSVTLKAMDGIIYGTIHPPRPTITPAGDEYEQVFKDLRVYKISIRKFSELKNATKRVKQETFTLTVPIGVRKFCVKVLPRLESRINKAEWSEEQCLLITTEQYFTVTNLSILVISMLLFCGILVCLVLQWYIRHPGKLPTVLVFKKPHDFFPANPLCPETPDAIHIVDLEVFPKVSLELRDSVLHGSTDSGFGSGKPSLQTEESQFLLPGSHPQIQGTLGKEESPGLQATCGDNTDSGICLQEPGLHSSMGPAWKQQLGYTHQDQDDSDVNLVQNSPGQPKYTQDASALGHVCLLEPKAPEEKDQVMVTFQGYQKQTRWKAEAAGPAECLDEEIPLTDAFDPELGVHLQDDLAWPPPALAAGYLKQES
As for B2, in test [1], the dissociation constant (Kd) was 0.54 nM.

B3: mIL-10R Δ282-458 (receptor)
chain: LEFIAYGTELPSPSYVWFEARFFQHILHWKPIPNQSESTYYEVALKQYGNSTWNDIHICRKAQALSCDLTTFTLDLYHRSYGYRARVRAVDNSQYSNWTTTETRFTVDEVILTVDSVTLKAMDGIIYGTIHPPRPTITPAGDEYEQVFKDLRVYKISIRKFSELKNATKRVKQETFTLTVPIGVRKFCVKVLPRLESRINKAEWSEEQCLLITTEQYFTVTNLSILVISMLLFCGILVCLVLQWYIRHPGKLPTVLVFKKPHDFFPANPLCPETPDAIHIVGVHLQDDLAWPPPALAAGYLKQESQGMASAPPGTPSRQWNQLTEEWSLLGVVSCEDLSIESWRFAHKLDPLDCGAAPGGLLDSLGSNLVTLPLISSLQVEE
Consider B3, for which, in test [2], the binding result is “binds”.

B4: wild-type mouse IL-10 receptor (mIL-10R) (receptor)
chain: LEFIAYGTELPSPSYVWFEARFFQHILHWKPIPNQSESTYYEVALKQYGNSTWNDIHICRKAQALSCDLTTFTLDLYHRSYGYRARVRAVDNSQYSNWTTTETRFTVDEVILTVDSVTLKAMDGIIYGTIHPPRPTITPAGDEYEQVFKDLRVYKISIRKFSELKNATKRVKQETFTLTVPIGVRKFCVKVLPRLESRINKAEWSEEQCLLITTEQYFTVTNLSILVISMLLFCGILVCLVLQWYIRHPGKLPTVLVFKKPHDFFPANPLCPETPDAIHIVDLEVFPKVSLELRDSVLHGSTDSGFGSGKPSLQTEESQFLLPGSHPQIQGTLGKEESPGLQATCGDNTDSGICLQEPGLHSSMGPAWKQQLGYTHQDQDDSDVNLVQNSPGQPKYTQDASALGHVCLLEPKAPEEKDQVMVTFQGYQKQTRWKAEAAGPAECLDEEIPLTDAFDPELGVHLQDDLAWPPPALAAGYLKQESQGMASAPPGTPSRQWNQLTEEWSLLGVVSCEDLSIESWRFAHKLDPLDCGAAPGGLLDSLGSNLVTLPLISSLQVEE
For the molecule B4, the Kd in test [1] is 0.28 nM.

B5: mIL-10R Δ282-389 (receptor)
chain: LEFIAYGTELPSPSYVWFEARFFQHILHWKPIPNQSESTYYEVALKQYGNSTWNDIHICRKAQALSCDLTTFTLDLYHRSYGYRARVRAVDNSQYSNWTTTETRFTVDEVILTVDSVTLKAMDGIIYGTIHPPRPTITPAGDEYEQVFKDLRVYKISIRKFSELKNATKRVKQETFTLTVPIGVRKFCVKVLPRLESRINKAEWSEEQCLLITTEQYFTVTNLSILVISMLLFCGILVCLVLQWYIRHPGKLPTVLVFKKPHDFFPANPLCPETPDAIHIVSPGQPKYTQDASALGHVCLLEPKAPEEKDQVMVTFQGYQKQTRWKAEAAGPAECLDEEIPLTDAFDPELGVHLQDDLAWPPPALAAGYLKQESQGMASAPPGTPSRQWNQLTEEWSLLGVVSCEDLSIESWRFAHKLDPLDCGAAPGGLLDSLGSNLVTLPLISSLQVEE
As for B5, the binding result in test [2] is given as “binds”.
